Earlier results, collected in publication PMC7905041.

Biological target: CD40 ECD (Homo sapiens) (UniProt P25942)
Experiment: SPR

Kd: 600 nM
Substance: CD40 CRD1/PLAD (from UniProt P25942)
